From patent publication US11124558B2, “Use of tetranectin and peptide agonists to treat inflammatory diseases” (The Feinstein Institutes for Medical Research, priority 2017, dated 2021)
“Also recorded” adds a separate entry of the source. Non-standard residues stand in square brackets, D forms with d. No end group written: not given here. Nle = CCCC[C@H](N)C(=O)O

B1: P12: Recombinant N-terminal deletion mutant of TN, residue 45-181, carbohydrate recognition domain (CRD), expressed in E. coli, SEQ ID NO:12 (protein, listed as Homo sapiens)
chain: ALQTVCLKGTKVHMKCFLAFTQTKTFHEASEDCISRGGTLGTPQTGSENDALYEYLRQSVGNEAEIWLGLNDMAAEGTWVDMTGARIAYKNWETEITAQPDGGKTENCAVLSGAANGKWFDKRCRDQLPYICQFGIV

Tests used:
[1] = test system: lethal sepsis (CLP), Balb/C mice; assay: Lethal sepsis by cecal ligation and puncture (CLP), survival in mice; assay type: in vivo; details: male Balb/C mice, given intraperitoneally, survival monitored more than two weeks
Protocol: FIG. 6A-6C: Recombinant TN protected mice against lethal endotoxemia and sepsis. Male Balb/C mice were subjected to lethal endotoxemia (LPS, 5 mg/kg, i.p., Panel A) or sepsis by cecal ligation and puncture (CLP, Panel B, C), and recombinant TN produced in HEK293 (Panel A, B) or E. coli (Panel C) was given intraperitoneally at indicated dosing regimens. Animal survival rates were monitored for more than two weeks to ensure no later death. Shown in Panel B and C is a summary of two independent experiments with similar results.
(§1) FIG. 9: N-terminal deletion TN mutant protected mice against lethal sepsis. Male Balb/C mice were subjected to lethal sepsis by cecal ligation and puncture (CLP), and recombinant deletion mutant (ΔTN) was given intrapeitoneally at indicated dosing regimens. Animal survival rates were monitored for more than two weeks to ensure no later death. Shown was a summary of two independent experiments with similar results.
as §1, with “10:” for “9: N-terminal deletion”, “peptide agonist (P11)” for “mutant”, “TN peptide agonist, (P11, […]) (SEQ ID NO:11)” for “recombinant deletion mutant (ΔTN)”, “N=8-18 animals per group.” for “similar results.”
FIG. 13A-13B: Tetranectin peptide agonists (P2 and P2-M/Nle) protected mice against lethal sepsis. Male Balb/C mice were subjected to lethal sepsis by cecal ligation and puncture (CLP), and TN peptide agonist, P2 (55-KVHMKCFLAFTQTKTF-70) (13A) (SEQ ID NO:2) or P2-M/Nle (54-TKVH(Nle)KSFLAFTQTKT-69) (13B) (SEQ ID NO:13) was given intraperitoneally at indicated dosing regimens. Animal survival rates were monitored for more than two weeks to ensure no later death. Shown was a summary of independent experiment with N=10 animals per group. The Kaplan-Meier method was used to compare the difference in mortality rates between groups. *, P<0.05 versus “CLP+Vehicle” group.
Effects of TN or peptide agonist on LSI. Balb/C mice (both male and female, 7-8 weeks, 20-25 g) are subjected to lethal endotoxemia or sepsis as described above, and the recombinant TN is injected (i.p.) at various doses and time points (2, 24, and 48 h) after the onset of endotoxemia or sepsis. Their effects on the outcomes of LSI is assessed by comparing the long-term (two-week) survival rates between the TN-treated groups with saline vehicle-treated controls. By varying the time points (e.g., 2, 12, 24 or 36 h) when the first dose of TN will be given to animals, the therapeutic windows for the TN-based therapy is estimated. […] It will be critical to continue these exciting experiments using other dosing regimens to further validate TN's protective role in LSI.
To explore the therapeutic potential of the TN-based strategies, the efficacy of TN-specific peptide agonists that would recapitulate the HMGB1-inhibiting capacities is tested using both animal models of lethal endotoxemia and sepsis. A series of peptide agonists have been designed, and chemically synthesized or biologically expressed as recombinant peptide (Table 1, FIG. 7). Peptide agonists will be given to the endotoxemic or septic mice intraperitoneally at various doses and time points after the onset of endotoxemia or sepsis. Their effects on the outcomes of LSI is assessed by comparing the long-term (two-week) survival rates between the peptide agonist groups and the saline vehicle-treated controls.
TN-specific peptide agonists are tested that would recapitulate the HMGB1-inhibiting capacities using both animal models of lethal endotoxemia and sepsis. Peptide agonists are given to the endotoxemic or septic mice intraperitoneally at various doses and time points after the onset of endotoxemia or sepsis. […]

[2] = test system: HMGB1 release; assay: LPS/SAA-induced HMGB1 release, summary statement (cells not specified); assay type: cell-based
[3] = test system: GRO/CXCL1 and ENA-78/CXCL5 secretion, HuPBMCs; assay: Cytokine/chemokine secretion by HuPBMCs (Cytokine Antibody Arrays); assay type: cell-based; details: primary human monocytes / HuPBMCs, TN 20 μg/ml, 16 h
Protocol: Human blood was purchased from the Long Island Blood Bank, and HuPBMCs were isolated by density gradient centrifugation through Ficoll, and stimulated with recombinant TN (20 μg/ml) expressed in HEK293 or E. coli for 16 h. The extracellular levels of cytokines and chemokines were determined by Cytokine Antibody Arrays.
In light of the protective roles of these neutrophil-attracting chemokines, CXCL1/KC [67,68] and CXCL5/ENA-78 [69,70] in LSI, it is important to determine whether TN could modulate leukocyte infiltration to facilitate potential pathogen elimination during sepsis.

[4] = test system: HMGB1 release, murine macrophage-like RAW264.7 cells; assay: SAA-induced HMGB1 release in RAW264.7 cells (Western blotting); assay type: cell-based; details: 16 h, serum-free OPTI-MEM I
Protocol: Murine macrophage-like RAW264.7 cells were cultured in serum-free OPTI-MEM I medium, and stimulated with SAA in the absence of presence of ΔTN (residue 45-181) for 16 h at the indicated concentrations. The extracellular HMGB1 levels were determined by Western blotting, and expressed as % of stimulation in the presence of SAA alone.

Molecule	protection against lethal sepsis (animal survival) [1]	attenuation of LPS/SAA-induced HMGB1 release [2]	protection against lethal sepsis (animal survival) ([1]; listed as synthetic peptide corresponding to the plasminogen-binding region (residue 143-1))	release of neutrophil-attracting chemokines (CXCL1/GRO-α/KC and CXCL5/ENA-78) [3]	protection against lethal sepsis (animal survival) ([1]; listed as N-terminal deletion mutant of TN)	protection against lethal sepsis (animal survival) ([1]; listed as ΔTN)	inhibition of SAA-induced HMGB1 release [4]	inhibition of SAA-induced HMGB1 release ([4]; listed as ΔTN)
KVHMKCFLAFTQTKTF (listed as Homo sapiens) [Peptide P2]	protected	–	–	–	–	–	–	–
QPDGGKTENCAVLSGAANGKWFDKRCRD (listed as Homo sapiens) [Peptide P11]	protected; also recorded: significant protection	dose-dependently attenuated	dose-dependent and significant protection	specifically stimulated	–	–	–	–
TKVH(Nle)KSFLAFTQTKT (TKVH[Nle]KSFLAFTQTKT) [P2-M/Nle]	protected	–	–	–	–	–	–	–
B1	significant protection	dose-dependently attenuated	–	specifically stimulated	significant protection	protected	dose-dependently attenuated	dose-dependently inhibited
